The target in assay [1] is cynomolgus LRP6 (cynomolgus, UniProt A0A2K5VCG3 20-1602). Briefly: FACS on HEK293T/17 cells transiently transfected with cynomolgus LRP6 (Example 3); Fab or IgG format not stated on the sheet.
The target of assay [2] is T1, LRP6-Fc (R&D Systems, catalog No: 1505-LR) (human, UniProt O75581 20-1370).
T1 construct: also called 360 KD homodimer antigen LRP6-Fc
T1 sequence (looked up): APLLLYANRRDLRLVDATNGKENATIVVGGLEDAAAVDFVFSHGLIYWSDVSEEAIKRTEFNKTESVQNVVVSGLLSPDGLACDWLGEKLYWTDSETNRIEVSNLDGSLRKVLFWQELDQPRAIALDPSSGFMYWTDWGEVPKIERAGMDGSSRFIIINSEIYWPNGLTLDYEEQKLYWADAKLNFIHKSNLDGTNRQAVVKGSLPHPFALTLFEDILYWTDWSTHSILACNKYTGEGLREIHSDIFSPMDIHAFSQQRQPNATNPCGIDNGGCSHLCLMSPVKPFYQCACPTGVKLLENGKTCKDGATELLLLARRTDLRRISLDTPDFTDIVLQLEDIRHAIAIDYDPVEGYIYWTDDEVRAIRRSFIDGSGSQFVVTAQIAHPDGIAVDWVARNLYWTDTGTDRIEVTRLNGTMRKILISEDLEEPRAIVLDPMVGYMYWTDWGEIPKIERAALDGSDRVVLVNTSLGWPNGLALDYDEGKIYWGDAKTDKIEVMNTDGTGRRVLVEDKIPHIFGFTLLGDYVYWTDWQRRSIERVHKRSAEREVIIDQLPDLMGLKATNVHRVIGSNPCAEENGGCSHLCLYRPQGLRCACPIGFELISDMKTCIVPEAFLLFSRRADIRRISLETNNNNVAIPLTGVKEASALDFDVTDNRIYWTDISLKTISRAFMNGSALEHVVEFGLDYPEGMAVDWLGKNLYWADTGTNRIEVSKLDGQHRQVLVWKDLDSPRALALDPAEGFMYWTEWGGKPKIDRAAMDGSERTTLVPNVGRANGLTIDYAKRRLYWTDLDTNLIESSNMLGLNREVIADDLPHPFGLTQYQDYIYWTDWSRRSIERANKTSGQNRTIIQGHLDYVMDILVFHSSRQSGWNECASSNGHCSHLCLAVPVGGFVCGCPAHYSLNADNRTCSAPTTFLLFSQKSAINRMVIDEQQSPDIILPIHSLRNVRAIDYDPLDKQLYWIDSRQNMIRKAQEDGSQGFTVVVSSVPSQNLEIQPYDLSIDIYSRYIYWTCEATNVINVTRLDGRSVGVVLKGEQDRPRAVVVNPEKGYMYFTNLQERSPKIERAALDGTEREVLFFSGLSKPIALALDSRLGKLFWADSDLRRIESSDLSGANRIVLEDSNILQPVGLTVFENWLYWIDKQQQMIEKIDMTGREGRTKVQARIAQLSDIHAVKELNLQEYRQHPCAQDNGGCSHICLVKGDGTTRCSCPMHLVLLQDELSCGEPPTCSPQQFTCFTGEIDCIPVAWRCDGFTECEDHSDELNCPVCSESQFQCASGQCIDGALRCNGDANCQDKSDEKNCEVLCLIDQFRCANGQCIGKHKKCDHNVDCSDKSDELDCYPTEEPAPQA
Briefly: ELISA on plates coated with LRP6-Fc. As for the experimental part: Binding EC₅₀ of scFvs against LRP6 protein was measured by ELISA. Maxisorp plate was coated with LRP6-Fc (R&D Sysytems, catalog No: 1505-LR) at 3 μg/ml at 4° C. overnight. The plate was blocked with 50 μl of 2% BSA for one hour, and washed five times with the wash solution. The samples were diluted with 1% BSA accordingly. The plate was incubated at RT for 1 h, and washed for 3 times. Detection was done by adding 50 μl pentallis-HRP (Qiagen Mat. No. 1014992) at 1:2000 dilution in 1% BSA, incubated at RT for 1 h, and washed 3 times. 50 μl of substrate reagent A plus B (R&D systems) was added, then incubated for 5-20 min depending on the color. The reaction was stopped by adding 25 μl of the stop solution, followed by plate reading at 450 nm.
Affinity analysis ELISA EC₅₀ was carried out for both scFv08168 and scFv06475 wild type and variants.
A general note: In an ELISA, binding on a coated surface is turned into a signal by an enzyme label.

Assay [3] concerns the target human LRP6 (human, UniProt O75581 20-1613). Briefly: cell-based or functional assay.

Substitutions are numbered along the chain they refer to.

Sequence of cynomolgus LRP6 (A0A2K5VCG3 entry or part of it): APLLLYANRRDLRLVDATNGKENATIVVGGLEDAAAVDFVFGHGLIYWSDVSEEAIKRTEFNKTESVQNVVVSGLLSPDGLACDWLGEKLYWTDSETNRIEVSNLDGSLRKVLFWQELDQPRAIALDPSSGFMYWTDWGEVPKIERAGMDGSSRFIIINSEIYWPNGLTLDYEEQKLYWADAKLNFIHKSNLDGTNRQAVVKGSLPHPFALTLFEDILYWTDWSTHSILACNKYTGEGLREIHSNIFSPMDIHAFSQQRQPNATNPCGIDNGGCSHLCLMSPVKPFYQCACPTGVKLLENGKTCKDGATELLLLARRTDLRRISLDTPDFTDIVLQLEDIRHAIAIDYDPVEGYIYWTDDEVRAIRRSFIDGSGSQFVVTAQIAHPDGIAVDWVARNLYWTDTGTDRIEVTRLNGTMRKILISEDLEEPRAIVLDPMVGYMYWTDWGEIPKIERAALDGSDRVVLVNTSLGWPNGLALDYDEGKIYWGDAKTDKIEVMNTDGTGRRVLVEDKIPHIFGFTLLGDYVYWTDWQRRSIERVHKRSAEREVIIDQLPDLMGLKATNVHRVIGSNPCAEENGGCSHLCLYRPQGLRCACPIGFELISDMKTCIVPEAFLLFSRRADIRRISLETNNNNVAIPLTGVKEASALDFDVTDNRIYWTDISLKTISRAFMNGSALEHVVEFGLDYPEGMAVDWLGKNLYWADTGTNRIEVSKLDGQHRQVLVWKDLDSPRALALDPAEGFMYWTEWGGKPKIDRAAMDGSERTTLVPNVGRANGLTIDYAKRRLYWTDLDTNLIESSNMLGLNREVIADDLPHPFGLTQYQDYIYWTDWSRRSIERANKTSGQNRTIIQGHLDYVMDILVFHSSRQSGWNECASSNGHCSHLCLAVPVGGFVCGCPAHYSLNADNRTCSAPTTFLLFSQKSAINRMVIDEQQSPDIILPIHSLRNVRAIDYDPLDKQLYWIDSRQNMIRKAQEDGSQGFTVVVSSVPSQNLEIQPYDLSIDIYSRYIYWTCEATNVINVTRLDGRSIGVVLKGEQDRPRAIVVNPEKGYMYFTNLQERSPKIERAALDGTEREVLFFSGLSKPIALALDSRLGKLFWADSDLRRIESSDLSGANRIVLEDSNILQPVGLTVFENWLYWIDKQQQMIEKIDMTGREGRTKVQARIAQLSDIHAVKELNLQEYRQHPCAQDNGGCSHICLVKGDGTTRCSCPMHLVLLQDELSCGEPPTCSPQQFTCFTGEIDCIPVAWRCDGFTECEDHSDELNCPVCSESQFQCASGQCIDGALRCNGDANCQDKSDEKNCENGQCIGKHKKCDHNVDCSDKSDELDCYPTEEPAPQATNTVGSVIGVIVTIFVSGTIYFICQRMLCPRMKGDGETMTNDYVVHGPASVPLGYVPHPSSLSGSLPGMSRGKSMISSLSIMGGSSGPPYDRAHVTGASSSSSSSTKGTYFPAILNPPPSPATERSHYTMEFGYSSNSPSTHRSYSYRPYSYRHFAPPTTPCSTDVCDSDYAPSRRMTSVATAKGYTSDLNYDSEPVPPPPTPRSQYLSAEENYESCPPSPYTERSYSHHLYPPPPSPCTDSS

B1: MOR08473 Fab (Fab, V domains shown)
VH: QVQLVESGGGLVQPGGSLRLSCAASGFTFSSYGMSWVRQAPGKGLEWVSNISNDGHYTYYADSVKGRFTISRDNSKNTLYLQMNSLRAEDTAVYYCARFQASYLDIMDYWGQGTLVTVSS
VL: DIELTQPPSVSVAPGQSITISCSGDNIGSKYVHWYQQKPGQAPVLVIYNDSNRPSGIPERFSGSNSGNTATLTISGTQAEDEADYYCQAWGDNGTRVFGGGTKLTVLG
notes: also called Propeller 3 anti-LRP6 Fab MOR08473
The term EC50 denotes the midpoint of the concentration-response curve. A higher EC50 goes with a need for much substance. For B1, the midpoint of the response in assay [1], the EC50, lay at 0.52 nM.

B2: scFv08168-D2 (scFv)
chain: QVQLVESGGGLVQPGGSLRLSCAASGFTFSDYVFNWVRQAPGKGLEWVAGISWSGVNTHYADSVKGRFTISRDNSKNTLYLQMNSLRAEDTAVYYCARLGATANNIRYKFMDVWGQGTLVTVSSGGGGSGGGGSGGGGSDIELTQPPSVSVAPGQTARISCSGDSLRNKVYWYQQKPGQAPVLVIYKNNRPSGIPERFSGSNSGNTATLTISGTQAEDEADYYCQSYDGQKSLVFGGGTKLTVL
In assay [2], B2 came in with a concentration for a half-maximal effect (EC50) of 1.68 nM.

B3: scFv08168-D5 (scFv)
chain: B2 chain with F34M, A49S, H59Y
Regarding B3, in assay [2], the midpoint of the response, the EC50, lay at 1.22 nM.

B4: scFv08168-D4 (scFv)
chain: B2 chain with F34M, A49S, G50S
B4 returned an EC50 in assay [2] of 1.47 nM.

B5: MOR08545 Fab (Fab, V domains shown)
VH: QVQLVESGGGLVQPGGSLRLSCAASGFTFSVNGMHWVRQAPGKGLEWVSVIDGMGHTYYADSVKGRFTISRDNSKNTLYLQMNSLRAEDTAVYYCARYDYIKYGAFDPWGQGTLVTVSS
VL: DIELTQPPSVSVAPGQTARISCSGDNIGSKYVHWYQQKPGQAPVLVIYGDSNRPSGIPERFSGSNSGNTATLTISGTQAEDEADYYCTRTSTPISGVFGGGTKLTVLG
notes: also called Propeller 1 anti-LRP6 Fab MOR08545
As for B5, the 50% effective concentration (EC50) in assay [1] amounted to 0.3 nM.

B6: scFv08168-D7 (scFv, V domains shown)
VH: QVQLVESGGGLVQPGGSLRLSCAASGFTFSDYVMNWVRQAPGKGLEWVSGISWSGVNTHYADSVKGRFTISRDNSKNTLYLQMNSLRAEDTAVYYCARLGATANNIRYKFMDVWGQGTLVTVSS
VL: DIELTQPPSVSVAPGQTARITCSGDSLRNKVYWYQQKPGQAPVLVIYKNNRPSGIPERFSGSNSGNTATLTISGTQAEDEADYYCQSYDGQKSLVFGGGTKLTVL
For the molecule B6, the “IC50 by STF assay for Wnt1 inhibition” value in assay [3] is 4.81 nM. This molecule also returned an EC50 in assay [2] of 1.15 nM.

B7: scFv08168-D9 (scFv, V domains shown)
VH: B6 VH
VL: B6 VL with T21S, G61V
For B7, in assay [3], the “IC50 by STF assay for Wnt1 inhibition” value worked out at 11.1 nM. In addition, the EC50 in assay [2] stood at 1.26 nM.

B8: MOR08168 Fab (Fab, V domains shown)
VH: B6 VH with M34I
VL: B6 VL with T21S
notes: HuCAL Fab expressed in E. coli; also called Propeller 1 anti-LRP6 Fab MOR08168
For the molecule B8, the half-maximal effective concentration (EC50) in assay [1] was 0.88 nM.

B9: scFv08168-D6 (scFv, V domains shown)
VH: B6 VH with V48I
VL: B6 VL with T21S
Regarding B9, in assay [3], the “IC50 by STF assay for Wnt1 inhibition” value is 0.74 nM. The molecule also showed an EC50 in assay [2] of 1.24 nM.

B10: scFv08168-D8 (scFv, V domains shown)
VH: B6 VH
VL: B6 VL with T21S, V45L
Molecule B10 registered an EC50 in assay [2] of 0.91 nM.

B11: MOR06706 Fab (Fab, V domains shown)
VH: QVQLVESGGGLVQPGGSLRLSCAASGFTFSDYAIHWVRQAPGKGLEWVSGISYSGSSTHYADSVKGRFTISRDNSKNTLYLQMNSLRAEDTAVYYCARGSHGNIMAKRYFDFWGQGTLVTVSS
VL: DIELTQPPSVSVAPGQTARISCSGDNIRKKYVYWYQQKPGQAPVLVIYEDSKRPSGIPERFSGSNSGNTATLTISGTQAEDEADYYCSTADSGINNGVFGGGTKLTVL
notes: also called Propeller 1 anti-LRP6 Fab MOR06706
The molecule B11 came in with an EC50 in assay [1] of 0.46 nM.

B12: MOR08193 Fab (Fab, V domains shown)
VH: QVQLKESGPALVKPTQTLTLTCTFSGFSLSNRGGGVGWIRQPPGKALEWLAWIDWDDDKSYSTSLKTRLTISKDTSKNQVVLTMTNMDPVDTATYYCARMHLPLVFDSWGQGTLVTVSS
VL: DIVLTQSPATLSLSPGERATLSCRASQFIGSRYLAWYQQKPGQAPRLLIYGASNRATGVPARFSGSGSGTDFTLTISSLEPEDFAVYYCQQYWSIPITFGQGTKVEIKR
notes: also called Propeller 3 anti-LRP6 Fab MOR08193
In assay [1], B12 registered a concentration for a half-maximal effect (EC50) of 0.2 nM.

The values are drawn from patent publication US20130064823A1 (Novartis, published 2013).
